The values that follow come from publication PMC5549332 (BMC Plant Biology, 2017).

One data set has as its target T1, GLO1 + 4 (Oryza sativa, UniProt Q10CE4+Q6YT73).
T1 construct: co-expressed N-terminally 6xHis-tagged GLO1 (pYES3) and GLO4 (pYES2) in Saccharomyces cerevisiae, Ni-IDA purified; GLO4/GLO5 names may be swapped in databases
T1 sequence (Q10CE4 1-369): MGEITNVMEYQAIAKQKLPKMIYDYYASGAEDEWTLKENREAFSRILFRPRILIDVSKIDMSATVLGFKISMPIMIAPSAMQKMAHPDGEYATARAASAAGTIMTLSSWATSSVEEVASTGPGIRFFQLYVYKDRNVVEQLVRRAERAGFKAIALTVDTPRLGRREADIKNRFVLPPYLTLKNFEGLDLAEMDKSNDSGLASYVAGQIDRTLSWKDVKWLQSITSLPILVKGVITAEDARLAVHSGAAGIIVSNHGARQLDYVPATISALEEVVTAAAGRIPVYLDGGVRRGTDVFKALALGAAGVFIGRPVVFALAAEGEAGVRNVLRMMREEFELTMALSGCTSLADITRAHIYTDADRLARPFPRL
T1 sequence (Q6YT73 1-369): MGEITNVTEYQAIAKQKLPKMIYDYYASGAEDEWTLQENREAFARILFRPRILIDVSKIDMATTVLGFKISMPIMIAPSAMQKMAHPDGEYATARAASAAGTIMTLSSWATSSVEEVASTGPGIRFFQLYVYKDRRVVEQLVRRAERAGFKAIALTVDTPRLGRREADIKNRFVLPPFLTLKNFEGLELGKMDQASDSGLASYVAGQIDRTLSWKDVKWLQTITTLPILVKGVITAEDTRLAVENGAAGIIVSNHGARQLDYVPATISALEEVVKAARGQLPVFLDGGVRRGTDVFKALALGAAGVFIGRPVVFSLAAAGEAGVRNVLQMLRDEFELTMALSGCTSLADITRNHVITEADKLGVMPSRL
Nature of the data set: peroxidase-coupled H2O2 assay, […] nm; slope replot of Lineweaver-Burk. The class given is biochemical.

In a further data set the target is T2, GLO4 (Oryza sativa, UniProt Q6YT73).
T2 construct: gene GLO5; complete ORF, N-terminal 6xHis tag kept, expressed in Saccharomyces cerevisiae INVSc1, Ni-IDA purified, subunit about 40 kDa, homo-oligomer; GLO4/GLO5 names may be swapped in databases, go by printed locus
T2 sequence (Q6YT73 1-369): T1 sequence (Q6YT73 1-369)
The description is as above. The class given is biochemical.

In the next data set the target is T3, GLO1 (Oryza sativa, UniProt Q10CE4).
T3 construct: complete ORF, N-terminal 6xHis tag kept, expressed in Saccharomyces cerevisiae INVSc1, Ni-IDA purified, subunit about 40 kDa, homo-oligomer
T3 sequence (Q10CE4 1-369): T1 sequence (Q10CE4 1-369)
The description is as above. Format: biochemical.

The target in another data set is T4, GLO3 (Oryza sativa, UniProt Q7FAS1).
T4 construct: complete ORF, N-terminal 6xHis tag kept, expressed in Saccharomyces cerevisiae INVSc1, Ni-IDA purified, subunit about 40 kDa
T4 sequence (Q7FAS1 1-367): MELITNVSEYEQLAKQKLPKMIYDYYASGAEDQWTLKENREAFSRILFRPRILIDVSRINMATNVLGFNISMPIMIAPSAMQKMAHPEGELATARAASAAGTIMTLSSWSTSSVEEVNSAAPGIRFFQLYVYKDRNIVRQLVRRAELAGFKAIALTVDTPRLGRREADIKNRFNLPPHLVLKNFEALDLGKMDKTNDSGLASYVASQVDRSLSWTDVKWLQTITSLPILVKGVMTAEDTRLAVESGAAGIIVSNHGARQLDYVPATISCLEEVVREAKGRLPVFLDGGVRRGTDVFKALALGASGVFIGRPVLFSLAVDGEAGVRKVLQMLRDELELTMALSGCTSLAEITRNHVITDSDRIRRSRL
The description is as above. The class given is biochemical.

Substrate in data set [1]: O=C(O)CO
Briefly: purified protein. The note with it: pH 7.8, 30 °C, 0.1 mM FMN.

Substrate in data set [2]: C[C@H](O)C(=O)O
Briefly: purified protein. The note with it: pH 7.8, 30 °C, 0.1 mM FMN.

Substrate in data set [3]: O=CC(=O)O
Briefly: purified protein. The class given is biochemical, Oryza sativa. To be noted: pH 7.8, 30 °C, 0.1 mM FMN.

Substrate in data set [4]: O=C(O)[C@H](O)CO
Briefly: purified protein. To be noted: pH 7.8, 30 °C, 0.1 mM FMN. The class given is biochemical, Oryza sativa.

For `O=C(O)C(=O)O` [oxalate], the Ki (commonly a dissociation constant, usually derived from enzyme kinetics or from competition with a known ligand) on GLO1 + 4 turned out to be 5.49 ± 1.04 mM; on GLO4, 6.34 ± 1.74 mM; on GLO1, 4.57 ± 0.93 mM; at GLO3 it was 5.6 ± 1.23 mM.

B1: GLO3 (Oryza sativa Japonica Group) (protein)
chain: T4 sequence (Q7FAS1 1-367)
notes: complete ORF, N-terminal 6xHis tag kept, expressed in Saccharomyces cerevisiae INVSc1, Ni-IDA purified, subunit about 40 kDa
B1: the Km (as a rule, the substrate concentration at which the rate is half of its maximum) is given as 0.470 ± 0.035 mM in the data set “purified protein [1]”, 1.104 ± 0.056 mM in the data set “purified protein [2]”, 1.799 ± 0.084 mM in “purified protein [3]” and 2.762 ± 0.311 mM in “purified protein [4]”.

B2: GLO4 (Oryza sativa Japonica Group) (protein)
chain: T1 sequence (Q6YT73 1-369)
notes: complete ORF, N-terminal 6xHis tag kept, expressed in Saccharomyces cerevisiae INVSc1, Ni-IDA purified, subunit about 40 kDa, homo-oligomer; GLO4/GLO5 names may be swapped in databases, go by printed locus
Regarding B2, the Km was 0.613 ± 0.050 mM in “purified protein [1]”, 4.720 ± 0.291 mM in the data set “purified protein [2]”, 5.983 ± 0.333 mM in the data set “purified protein [3]” and 4.367 ± 0.395 mM in the data set “purified protein [4]”.

B3: GLO1 (Oryza sativa Japonica Group) (protein)
chain: T1 sequence (Q10CE4 1-369)
notes: complete ORF, N-terminal 6xHis tag kept, expressed in Saccharomyces cerevisiae INVSc1, Ni-IDA purified, subunit about 40 kDa, homo-oligomer
With B3, the Km in the data set “purified protein [1]” is on record as 0.499 ± 0.041 mM; in “purified protein [2]”, 5.128 ± 0.315 mM; in “purified protein [3]”, 6.505 ± 0.412 mM; in “purified protein [4]”, 4.976 ± 0.305 mM.

B4: GLO1 + 4 (Oryza sativa Japonica Group) (protein)
chain 1: T1 sequence (Q10CE4 1-369)
chain 2: T1 sequence (Q6YT73 1-369)
notes: co-expressed N-terminally 6xHis-tagged GLO1 (pYES3) and GLO4 (pYES2) in Saccharomyces cerevisiae, Ni-IDA purified; GLO4/GLO5 names may be swapped in databases
With B4, the Km is 0.423 ± 0.038 mM in “purified protein [1]”, 5.227 ± 0.448 mM in the data set “purified protein [2]”, 4.883 ± 0.321 mM in “purified protein [3]” and 4.511 ± 0.307 mM in the data set “purified protein [4]”.
